Measured values published in PMC8372230.

Molecular target: extracellular domain (residues Q18 to S740) of human ACE2 fused with human IgG1 Fc (human) (UniProt Q9BYF1)
Assay: BLI

Chain of UniProt Q9BYF1 (Q9BYF1 18-740): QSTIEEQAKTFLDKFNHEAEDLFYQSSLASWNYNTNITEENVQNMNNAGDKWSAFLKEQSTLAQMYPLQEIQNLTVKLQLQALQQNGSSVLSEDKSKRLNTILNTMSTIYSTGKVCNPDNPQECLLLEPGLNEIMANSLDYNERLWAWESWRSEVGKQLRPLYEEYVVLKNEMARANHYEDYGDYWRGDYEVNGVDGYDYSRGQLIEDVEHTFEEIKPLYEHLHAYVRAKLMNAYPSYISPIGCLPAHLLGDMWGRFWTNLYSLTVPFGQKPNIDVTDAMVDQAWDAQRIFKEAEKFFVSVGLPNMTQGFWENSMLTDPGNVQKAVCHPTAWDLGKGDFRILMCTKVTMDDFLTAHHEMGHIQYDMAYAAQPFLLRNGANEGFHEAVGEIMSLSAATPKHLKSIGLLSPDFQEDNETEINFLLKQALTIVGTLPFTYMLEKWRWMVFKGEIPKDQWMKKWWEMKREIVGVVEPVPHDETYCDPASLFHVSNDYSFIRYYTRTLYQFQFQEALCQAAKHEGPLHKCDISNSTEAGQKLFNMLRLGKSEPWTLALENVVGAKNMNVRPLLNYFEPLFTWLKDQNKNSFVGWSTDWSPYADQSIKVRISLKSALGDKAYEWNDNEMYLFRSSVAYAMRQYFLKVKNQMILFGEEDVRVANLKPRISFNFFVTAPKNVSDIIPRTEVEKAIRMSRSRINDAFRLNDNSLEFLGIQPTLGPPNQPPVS

yeast-derived monomeric RBD of SARS-CoV-2 (residues 320-550, C-terminal 6x His-tag) (domain or fragment)
Kd: 9.07 nM | koff: 0.00239 s⁻¹ | kon: 264000 M⁻¹ s⁻¹
